Read-outs that look alike come from different tables or passages of the source.
B1: his pause ePEC scaffold (RNA-7604, tDNA 5420, ntDNA 5069) (mixed)
RNA: UCAUCCGGCGAUGUGUGCU
DNA 1: CTCTGAATCTCTTCCAGCACACATCAGGACGTACTGACC
DNA 2: GGTCAGTACGTCCATTCGATCTTCGGAAGAGATTCAGAG
modifications: pyrrolo-cytosine at RNA nt 5 (Z in the printed sequence)
B2: his pause ePEC scaffold + 8mer asRNA (RNA-6598) (mixed)
RNA 1: UCAUCCGGCGAUGUGUGCU
DNA 1: B1 DNA 1
DNA 2: B1 DNA 2
RNA 2: CCGGAUGA
modifications: pyrrolo-cytosine at RNA nt 5 (Z in the printed sequence)

Legend:
[1] = target: T1, E. coli core RNA polymerase (wild-type) (Escherichia coli, UniProt P0A7Z4;P0A8V2;P0A8T7;P0A800 1-329;1-1342;1-1407;1-91); experiment: EMSA
[2] = target: T1, E. coli core RNA polymerase (wild-type); experiment: EMSA; remark: listed apart in the source

T1 sequence (P0A7Z4 whole entry, chain 1 of 3): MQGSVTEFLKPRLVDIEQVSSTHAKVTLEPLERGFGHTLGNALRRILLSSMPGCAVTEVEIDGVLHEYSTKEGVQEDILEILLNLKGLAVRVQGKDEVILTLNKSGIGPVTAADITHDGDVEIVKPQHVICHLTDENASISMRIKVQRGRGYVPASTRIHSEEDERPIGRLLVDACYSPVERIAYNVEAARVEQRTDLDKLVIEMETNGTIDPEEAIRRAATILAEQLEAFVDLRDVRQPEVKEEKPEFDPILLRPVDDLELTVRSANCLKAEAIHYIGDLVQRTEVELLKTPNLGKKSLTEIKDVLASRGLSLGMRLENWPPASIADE
T1 sequence (P0A8V2 whole entry, chain 2 of 3): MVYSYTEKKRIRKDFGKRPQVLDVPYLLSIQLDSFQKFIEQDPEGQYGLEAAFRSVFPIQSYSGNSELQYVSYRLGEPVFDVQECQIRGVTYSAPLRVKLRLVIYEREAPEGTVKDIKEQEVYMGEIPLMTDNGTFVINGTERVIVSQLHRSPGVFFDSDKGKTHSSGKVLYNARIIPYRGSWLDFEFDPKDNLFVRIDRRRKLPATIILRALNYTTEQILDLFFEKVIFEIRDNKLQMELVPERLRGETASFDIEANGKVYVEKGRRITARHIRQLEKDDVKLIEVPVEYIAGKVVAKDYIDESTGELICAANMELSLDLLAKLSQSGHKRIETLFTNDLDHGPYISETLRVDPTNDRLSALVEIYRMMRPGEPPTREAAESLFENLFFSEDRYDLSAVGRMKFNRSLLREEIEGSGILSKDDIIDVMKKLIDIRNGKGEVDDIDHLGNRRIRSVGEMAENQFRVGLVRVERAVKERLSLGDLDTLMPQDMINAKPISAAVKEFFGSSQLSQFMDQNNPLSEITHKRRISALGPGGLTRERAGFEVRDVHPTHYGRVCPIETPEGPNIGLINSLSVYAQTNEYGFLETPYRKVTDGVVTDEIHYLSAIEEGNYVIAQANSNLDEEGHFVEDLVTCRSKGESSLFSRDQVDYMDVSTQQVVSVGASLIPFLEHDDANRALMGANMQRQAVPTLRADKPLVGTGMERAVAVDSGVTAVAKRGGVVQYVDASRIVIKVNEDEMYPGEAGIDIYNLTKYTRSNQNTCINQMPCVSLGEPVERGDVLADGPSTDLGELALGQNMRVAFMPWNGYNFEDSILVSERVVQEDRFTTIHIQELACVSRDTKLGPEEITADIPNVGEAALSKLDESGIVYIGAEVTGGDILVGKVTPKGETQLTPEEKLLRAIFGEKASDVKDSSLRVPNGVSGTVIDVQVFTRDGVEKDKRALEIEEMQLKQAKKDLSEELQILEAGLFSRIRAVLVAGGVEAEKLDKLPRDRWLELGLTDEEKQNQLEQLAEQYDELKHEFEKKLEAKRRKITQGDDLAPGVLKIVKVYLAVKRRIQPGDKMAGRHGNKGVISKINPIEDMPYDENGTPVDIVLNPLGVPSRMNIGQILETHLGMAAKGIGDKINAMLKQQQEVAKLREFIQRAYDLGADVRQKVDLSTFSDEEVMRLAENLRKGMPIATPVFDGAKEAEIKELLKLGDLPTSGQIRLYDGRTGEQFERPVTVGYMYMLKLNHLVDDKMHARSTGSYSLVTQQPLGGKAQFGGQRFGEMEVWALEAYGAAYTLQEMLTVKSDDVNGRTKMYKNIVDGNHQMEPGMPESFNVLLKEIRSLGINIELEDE
T1 sequence (P0A800 whole entry, chain 4 of 3): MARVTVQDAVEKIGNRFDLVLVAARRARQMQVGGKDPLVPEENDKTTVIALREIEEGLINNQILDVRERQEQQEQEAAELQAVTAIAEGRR

Row | Binder | binding result [1] | binding result [2]
1 | B1 | binds | 
2 | B2 |  | binds
